Assay results: US20200325237A1 (AVIDITY BIOSCIENCES, published 2020)

T1: TfR2 (transferrin receptor 2) (UniProt Q9UP52 105-801, limits assumed)
T1 sequence (looked up): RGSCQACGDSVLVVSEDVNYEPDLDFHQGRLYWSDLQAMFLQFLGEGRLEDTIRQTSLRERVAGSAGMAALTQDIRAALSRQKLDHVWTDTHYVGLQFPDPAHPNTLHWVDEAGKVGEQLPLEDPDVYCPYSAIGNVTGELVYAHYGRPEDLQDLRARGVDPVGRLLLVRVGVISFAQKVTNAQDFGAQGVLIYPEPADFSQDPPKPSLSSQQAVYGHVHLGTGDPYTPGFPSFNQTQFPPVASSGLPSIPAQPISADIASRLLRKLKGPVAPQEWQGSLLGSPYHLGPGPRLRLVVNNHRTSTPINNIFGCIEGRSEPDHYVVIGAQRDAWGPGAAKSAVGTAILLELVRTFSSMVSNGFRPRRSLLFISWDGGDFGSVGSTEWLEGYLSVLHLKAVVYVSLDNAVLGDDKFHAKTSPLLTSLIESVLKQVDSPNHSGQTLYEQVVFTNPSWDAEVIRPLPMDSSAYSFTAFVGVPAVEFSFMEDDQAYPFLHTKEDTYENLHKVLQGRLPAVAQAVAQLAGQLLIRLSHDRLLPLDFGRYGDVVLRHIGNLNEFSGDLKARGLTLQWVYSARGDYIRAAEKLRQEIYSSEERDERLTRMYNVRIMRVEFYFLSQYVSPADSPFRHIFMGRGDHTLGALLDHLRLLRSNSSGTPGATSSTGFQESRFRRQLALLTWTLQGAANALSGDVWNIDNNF


Columns and labels:
[1] = target: T2, hTfR (human transferrin receptor, source and construct not stated) (human, UniProt P02786 89-760, limits assumed); test: SPR (BioRad ProteOn XPR36), mAb captured on Protein A, hTfR as analyte, 25 C
Protocol: The binding kinetics of nine exemplary humanized anti-TfR antibodies and the parent chimeric antibody were characterized. Studies were run on a BioRad ProteOn XPR36 optical biosensor using a GLM sensor chip coated with Protein A for mAb capture. Running buffer included 10 mM EPES, 150 mM NaCl, pH 7.4 with 0.05 tween-20 with 0.2 mg/ml BSA. Data were collected at 25 degrees C. All mAbs were diluted into running buffer to 2 ug/ml based on the stock concentration provided. Each was then captured for 40 seconds over a Protein A surface.
hTfR (100 ug) was dissolved into […] of water to yield a 4.3 uM stock concentration. hTfR was dilted to 43 nM as the highest concentration and tested in a 3 fold dilution series. hTfR was injected at 200 ul/min for 2 minutes followed by a one-hour dissociation phase.

[2] = target: T3, recombinant cyno transferrin receptor protein (Sino Biological 90253-C07H) (cyno, UniProt H9EXL1 89-760 (rhesus entry)); test: ELISA on plate-coated recombinant cyno TfR1 (CD71); fit: specific binding with Hill slope
T3 construct: Bought protein coated on ELISA plates; also called recombinant cyno TfR1; cynoTfR1
Protocol: (§1) Half-well high-binding 96-well plates (Costar #3690) were coated with recombinant human transferrin receptor protein (Sino Biological 11020-H07H) or recombinant cyno transferrin receptor protein (Sino Biological 90253-C07H) at 1 ng/μL in PBS (Gibco 14190) and incubated overnight at 4° C. Plates were washed four times with 100 μL of Tris buffered saline+Tween (20×TBST, Cell Signaling 9997S). 100 μL of Superblock (ThermoFisher PI-37535) was added to each well and incubated for 1 hour at room temperature. The wash step was repeated before the addition of the samples. Samples were added at concentrations up to 10 nM, 50 μL/well. Plates were incubated for another hour at room temp and wash step repeated. Secondary antibody (Peroxidase AffiniPure Goat Anti-Human IgG, Fcγ Fragment Specific, Jackson Immunoresearch, 109-035-098) was diluted 1:5000 in Superblock and 50 μL/well added. Plates were incubated for 1 hour at room temperature and washed one more time. Binding was measured by the addition of 50 μL of 1-Step™ Ultra TMB-ELISA (ThermoFisher, 34028), incubated for 5 minutes, and the reaction was stopped with the addition of 25 μL of Stop Solution 2N sulfuric Acid (R&D Systems DY994). Absorbance was measured at 450 nm, with reference wavelength 570 nm subtracted. Binding constants were determined using GraphPad Prism Specific Binding with Hill Slope.

[3] = target: T2, hTfR (human transferrin receptor, …); test: ELISA, biotinylated antibody on hTfR captured by plate-coated HFE (HFE+TfR); fit: specific binding with Hill slope
[4] = target: T2, hTfR (human transferrin receptor, …); test: ELISA; ratio of the Kd on HFE-captured hTfR to the Kd on directly coated hTfR
[5] = target: T1, TfR2 (transferrin receptor 2); test: A450 plate assay on TfR2 (method not described in the text)
[6] = target: T2, hTfR (human transferrin receptor, …); test: ELISA, biotinylated antibody on hTfR captured by plate-coated human holo-transferrin (Tf+TfR); fit: specific binding with Hill slope
Protocol: (§2) Antibodies were biotinylated using 50 fold molar excess of EZ-Link No weigh NHS-Biotin (Thermo Scientific A39256) following manufacturer's instructions. Half-well high-bind plates (Costar #3690) were coated with 500 ng/mL purified human holo-transferrin (R&D Systems 2914-HT) in PBS at 4° C. overnight. For comparison, plates were coated directly with hTfR. Plates were washed four times with 100 μL of Tris buffered saline+Tween (20×TBST, Cell Signaling 9997S). 100 μL of Superblock (ThermoFisher PI-37535) was added to each well and incubated for 1 hour at room temperature. The wash step was repeated before the addition of the hTfR (200 ng/mL in 25 μl) to the transferrin plates, or Superblock to the hTfR plates, and incubated for 30 minutes. Biotinylated antibodies were diluted to 20 nM for the high concentration and added to the plates with 3-fold serial dilution. 25 μl/well was added to the 25 μl already in the plate. Plates were incubated for 1 hour, and wash step was repeated. Streptavidin-HRP (R&D Systems DY998) was added following recommended dilution on the package insert, and a final wash step was done. Binding was measured by the addition of 50 μL of 1-Step™ Ultra TMB-ELISA (ThermoFisher, 34028), incubated for 5 minutes, and the reaction was stopped with the addition of 25 μL of Stop Solution 2N sulfuric Acid (R&D Systems DY994). Absorbance was measured at 450 nm, with reference wavelength 570 nm subtracted. Binding constants were determined using GraphPad Prism Specific Binding with Hill Slope. Change in antibody binding constants in the presence versus absense of transferrin is considered relative to the commercially available antibody which is known to have an overlapping epitope with transferrin (AF2474, R&D Systems).

[7] = target: T2, hTfR (human transferrin receptor, …); test: ELISA; ratio of the Kd on transferrin-captured hTfR to the Kd on directly coated hTfR
Protocol: as §2

[8] = target: T4, recombinant human transferrin receptor protein (Sino Biological 11020-H07H) (human, UniProt P02786 89-760); test: ELISA on plate-coated recombinant human TfR1 (CD71); fit: specific binding with Hill slope (row labels blank in the lower block; row taken by the order Bmax, h, Kd)
T4 construct: Bought protein coated on ELISA plates; also called recombinant human TfR1; human TfR1
Protocol: as §1

T2 sequence (P02786 89-760 limits assumed): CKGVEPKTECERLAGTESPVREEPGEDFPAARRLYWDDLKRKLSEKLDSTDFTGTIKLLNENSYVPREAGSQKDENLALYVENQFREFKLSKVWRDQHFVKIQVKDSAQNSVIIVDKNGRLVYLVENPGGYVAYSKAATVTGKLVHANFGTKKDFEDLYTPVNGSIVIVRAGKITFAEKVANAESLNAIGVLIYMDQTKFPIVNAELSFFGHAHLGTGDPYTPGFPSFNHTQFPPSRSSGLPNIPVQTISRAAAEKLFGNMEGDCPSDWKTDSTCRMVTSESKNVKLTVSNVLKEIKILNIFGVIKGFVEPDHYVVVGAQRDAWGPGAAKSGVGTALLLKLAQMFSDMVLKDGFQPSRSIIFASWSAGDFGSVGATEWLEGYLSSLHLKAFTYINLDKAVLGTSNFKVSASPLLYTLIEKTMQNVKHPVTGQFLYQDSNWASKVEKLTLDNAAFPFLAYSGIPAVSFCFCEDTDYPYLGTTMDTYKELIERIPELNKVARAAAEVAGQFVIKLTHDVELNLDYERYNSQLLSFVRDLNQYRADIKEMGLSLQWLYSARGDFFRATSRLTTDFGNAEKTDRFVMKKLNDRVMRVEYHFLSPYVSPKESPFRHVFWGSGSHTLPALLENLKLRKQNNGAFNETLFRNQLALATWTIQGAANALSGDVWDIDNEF
T4 sequence (P02786 89-760 limits assumed): as above
T3 sequence (chain, as listed by the source C07H C07H): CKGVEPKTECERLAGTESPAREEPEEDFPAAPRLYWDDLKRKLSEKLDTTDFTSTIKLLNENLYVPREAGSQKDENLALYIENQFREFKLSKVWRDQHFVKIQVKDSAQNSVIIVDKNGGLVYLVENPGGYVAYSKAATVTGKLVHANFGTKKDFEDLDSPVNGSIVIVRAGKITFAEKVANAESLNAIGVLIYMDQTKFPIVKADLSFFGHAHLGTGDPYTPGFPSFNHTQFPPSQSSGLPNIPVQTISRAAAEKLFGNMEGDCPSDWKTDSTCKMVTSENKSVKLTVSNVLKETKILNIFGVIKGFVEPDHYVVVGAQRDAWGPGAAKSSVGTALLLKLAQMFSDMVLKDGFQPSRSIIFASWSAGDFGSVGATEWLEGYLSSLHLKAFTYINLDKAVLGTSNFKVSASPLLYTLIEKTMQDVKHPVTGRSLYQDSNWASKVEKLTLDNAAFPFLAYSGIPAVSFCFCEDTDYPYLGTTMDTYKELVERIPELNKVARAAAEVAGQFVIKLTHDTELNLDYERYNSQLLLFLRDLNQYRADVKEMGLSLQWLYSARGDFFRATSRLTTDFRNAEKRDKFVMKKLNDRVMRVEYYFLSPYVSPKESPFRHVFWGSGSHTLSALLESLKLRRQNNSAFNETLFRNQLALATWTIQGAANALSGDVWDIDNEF

Row | Binder | Kd [1] | koff [1] | kon [1] | Bmax [2] | Kd [2] | h [2] | Bmax [3] | Kd [3] | h [3] | Kd(HFE+TfR)/Kd(TfR) [4] | binding result [5] | Bmax [6] | Kd [6] | h [6] | Kd(Tf+TfR)/Kd(TfR) [7] | Bmax [8] | Kd [8] | h [8]
1 | 13E4-Variant 9ii (antibody, human IgG1, kappa, L234A L235A, Humanized hIgG1 with Fc mutations; also called hIgG1 TfR-Var9ii) heavy: QVQLVQSGAEVKKPGASVKVSCKASGYTFTNYWMHWVRQAPGQGLEWMGEINPINGRSNYAQKFQGRVTLTVDTSISTAYMELSRLRSDDTAVYYCARGTRAMHYWGQGTLVTVSSASTKGPSVFPLAPSSKSTSGGTAALGCLVKDYFPEPVTVSWNSGALTSGVHTFPAVLQSSGLYSLSSVVTVPSSSLGTQTYICNVNHKPSNTKVDKRVEPKSCDKTHTCPPCPAPEAAGGPSVFLFPPKPKDTLMISRTPEVTCVVVDVSHEDPEVKFNWYVDGVEVHNAKTKPREEQYNSTYRVVSVLTVLHQDWLNGKEYKCGVSNKALPAPIEKTISKAKGQPREPQVYTLPPSREEMTKNQVSLTCLVKGFYPSDIAVEWESNGQPENNYKTTPPVLDSDGSFFLYSKLTVDKSRWQQGNVFSCSVMHEALHNHYTQKSLSLSPG light: DIQMTQSPSSLSASVGDRVTITCRTSENIYNNLAWYQQKPGKAPKLLIYAATNLAEGVPSRFSGSGSGTDYTLTISSLQPEDFATYYCQHFWGTPLTFGGGTKVEIKRTVAAPSVFIFPPSDEQLKSGTASVVCLLNNFYPREAKVQWKVDNALQSGNSQESVTEQDSKDSTYSLSSTLTLSKADYEKHKVYACEVTHQGLSSPVTKSFNRGEC | 0.00231 nM | 1.81e-06 s⁻¹ | 784000 M⁻¹ s⁻¹ | 94.3 % max binding | 0.0114 nM | 1.74 | 3 A450 | 0.229 nM | 1.36 | 10.4 | no binding (tested: 1000 nM) | 3.51 A450 | 0.057 nM | 1.48 | 2.6 | 95.2 % max binding | 0.00823 nM | 1.57
2 | 13E4-Variant 9iii (antibody, human IgG1, kappa, L234A L235A, Humanized hIgG1 with Fc mutations; also called hIgG1 TfR-Var9iii) heavy: QVQLVQSGAEVKKPGASVKVSCKASGYTFTNYWMHWVRQAPGQGLEWMGEINPINGRSNYAQKFQGRVTLTVDTSISTAYMELSRLRSDDTAVYYCARGTRAMHYWGQGTLVTVSSASTKGPSVFPLAPSSKSTSGGTAALGCLVKDYFPEPVTVSWNSGALTSGVHTFPAVLQSSGLYSLSSVVTVPSSSLGTQTYICNVNHKPSNTKVDKRVEPKSCDKTHTCPPCPAPEAAGGPSVFLFPPKPKDTLMISRTPEVTCVVVDVSHEDPEVKFNWYVDGVEVHNAKTKPREEQYNSTYRVVSVLTVLHQDWLNGKEYKCKVSNKARPAPIEKTISKAKGQPREPQVYTLPPSREEMTKNQVSLTCLVKGFYPSDIAVEWESNGQPENNYKTTPPVLDSDGSFFLYSKLTVDKSRWQQGNVFSCSVMHEALHNHYTQKSLSLSPG light: DIQMTQSPSSLSASVGDRVTITCRTSENIYNNLAWYQQKPGKAPKLLIYAATNLAEGVPSRFSGSGSGTDYTLTISSLQPEDFATYYCQHFWGTPLTFGGGTKVEIKRTVAAPSVFIFPPSDEQLKSGTASVVCLLNNFYPREAKVQWKVDNALQSGNSQESVTEQDSKDSTYSLSSTLTLSKADYEKHKVYACEVTHQGLSSPVTKSFNRGEC | 0.00527 nM | 4.17e-06 s⁻¹ | 791000 M⁻¹ s⁻¹ | 94 % max binding | 0.0137 nM | 1.74 | 3.14 A450 | 0.248 nM | 1.38 | 11.4 | no binding (tested: 1000 nM) | 3.53 A450 | 0.0546 nM | 1.49 | 2.5 | 93.8 % max binding | 0.012 nM | 1.56
3 | 13E4-Variant 15i (antibody, human IgG1, kappa, L234A L235A, Humanized hIgG1 with Fc mutations; also called hIgG1 TfR-Var15i) heavy: not shown light: DIQMTQSPSSLSASVGDRVTITCRTSENIYSNLAWYQQKPGKAPKLLIYAGTNLADGVPSRFSGSGSGTDYTLTISSLQPEDFANYYCQHFWGTPLTFGGGTKVEIKRTVAAPSVFIFPPSDEQLKSGTASVVCLLNNFYPREAKVQWKVDNALQSGNSQESVTEQDSKDSTYSLSSTLTLSKADYEKHKVYACEVTHQGLSSPVTKSFNRGEC | 0.00851 nM | 6.13e-06 s⁻¹ | 720000 M⁻¹ s⁻¹ | 94.2 % max binding | 0.0125 nM | 1.55 | 2.7 A450 | 0.182 nM | 1.65 | 8.5 | no binding (tested: 1000 nM) | 3.47 A450 | 0.0619 nM | 1.56 | 2.9 | 95.3 % max binding | 0.00713 nM | 1.29
